# Laboratory results published in the RNAGym collection of RNA variant scans (doi:10.1073/pnas.2313332121).
# B1: TPR t1 (parent)
# chain: GACCAAUCUGCCCUCAGAGCUCGAGAACAUCUUCGGAUGCAGAGGAGGCAGGCUUCGGUGGCGCGAUAGCGCCAACGUCCUCAACCUCCAAUGCAUCCCACCACAUGAUGAUGCCUGAAGAGCCUUGGUUUUUUG
# Variants of: B1
# Experiment: polymerase ribozyme fitness, log enrichment relative to wild type (log ratio); higher = more active; in vitro selection for triplet polymerase activity
# Summary of the method: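 For each subunit of a heterodimeric triplet polymerase ribozyme, a mutant library was built by PCR and transcribed, then taken through a single in vitro selection round in triplicate. Selection involved annealing to a biotinylated primer, the partner subunit and triplets, incubation frozen at −7 °C, gel excision of extended constructs, capture on streptavidin beads and RT-PCR. Genotypes were retained after Illumina sequencing of inputs and outputs only with ≥10 input reads and ≥1 read in each output. Fitness is defined as the logarithm of a genotype's enrichment relative to wild-type enrichment, using inverse-variance-weighted averages across replicates, with the logarithm taken to base 2.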
row,Variant,polymerase ribozyme fitness (log ratio)
1,G61A G120A,0.833
2,G61U C79U,0.149
3,G61C U87A G110C,-5.84
4,G61A A74U C101G G120C,-2.7
5,G61U G93U,-0.532
6,G61C A121C,-0.241
7,G61A C62G A75G A95U A121C,-5.37
8,G61A G110C,-3.29
9,G61A G110U,-0.817
10,G61U U96G,-0.881
11,G61A C76U C97U,-4.24
12,G61C G117U,-4.38
13,G61C G117C,-3.51
14,G61U C82G A100C G113U,-5.11
15,G60U G77A U131A,-0.885
16,G61U C82U,-0.605
17,G60U G110C C123U,-5.58
18,G60U G127A,-0.768
19,G61C U78A U106A G120A,0.446
20,G61U U78A,0.0643
21,G61U U78C,-0.574
22,G61A U87A C124A,1.93
23,G61U C101U A119G C124G,1.72
24,G61C C72U,0.273

row,Variant,polymerase ribozyme fitness (log ratio)
1,G60U C97A C123U,-2.62
2,G61U C79A G110U,-3.28
3,G61C U133A,-1.7
4,G61U A83U A91C U96A,-1.27
5,G61A C124U,1.51
6,G61U U78C A83U,-0.564
7,G61C A103C U130G,-6.98
8,G61C G122A G128U G135U,-3.92
9,G61U U78A G128C,-2.72
10,G61A A74U G113U,-4.56
11,G61C C79U,-1.46
12,G61A A84U G93C G128A,-3.36
13,G61A U87C U126G,-1.59
14,G61C G122A U126C G135U,-4.38
15,G61A G93C,-0.381
16,G61A G93A,-0.586
17,G60U G61A U78G A84U C86A,-3.37
18,G60U G61U,-1.93
19,G60U G61A,-0.341
20,G61U U106G A108U,-4.45
21,G61A G63U,-3.75
22,G60U G113A,-0.847
23,G60U G113U,-2.04
24,G61U C85G G127C,-2.41

row,Variant,polymerase ribozyme fitness (log ratio)
1,G60U G93A A105C,-3.53
2,G61U A121C,1.94
3,G61U A121G,2.12
4,G61C C79G C86U,-1.95
5,G61U U81G,-2.74
6,G60U G107A,-3.31
7,G61A A66C U78C C88G,-2.23
8,G61A U81G U116G C124A,-2.39
9,G61A U81G,-3.89
10,G61C G107U,-7.35
11,G61U C62U,-3.5
12,G61C C80A G107U C114U G127C,-5.81
13,G60U U129A,-1.37
14,G61C U131A,-2.31
15,G61C U81A,-3.2
16,G61U U92G U126A U129G,-5.18
17,G61C C82A G110A G127A,-3.64
18,G61U C124U,1.52
19,G60U C89A A111C C114A,-4.37
20,G60U G61A A91U,-2.61
21,G61C C115G,-4.37
22,G60U C114U C123U,-3.67
23,G60U G63U,-4.69
24,G60U G63A,-4.69

row,Variant,polymerase ribozyme fitness (log ratio)
1,G61U A95G C124U,1.97
2,G61U C79A C102U,-3.26
3,G61U C82G C85U A119U,-0.891
4,G60U G120C,1.43
5,G61U C62A U112A G128A U133A,-5.42
6,G61A C73U C76U,-3.66
7,G61C A91U,-4.64
8,G61A C99U G113C,-5.29
9,G61A C80U,-1.03
10,G61U U87C C99U C115G,-4.63
11,G61U C97G,-4.15
12,G61A A74C G128C,-5.31
13,G61A U96G U130C,-0.371
14,G61C C99U A111C,-5.26
15,G60U U109G U125G U130G,-5.39
16,G60U C98G,-5.35
17,G61U A74G G93U G117U,-5.63
18,G61C A66C,-2.87
19,G61A A83U G117C,-4.17
20,G61A G120U G135U,-0.818
21,G61A U78G,-0.87
22,G61A U78A,-0.223
23,G61A U78C C104A,-1.61
24,G61U U87G,0.809

row,Variant,polymerase ribozyme fitness (log ratio)
1,G61U C98U U129C,-0.95
2,G61U C97G G122U,-3.87
3,G60U G128U,-2.12
4,G60U G128A,-1.69
5,G60U C80A,-3.33
6,G60U G71C,-3.38
7,G60U G71U,-1.98
8,G61U C102A,-2.05
9,G61C G93C,-3.2
10,G61C A119U,-1.89
11,G61C A119G,-0.986
12,G61A A84C C88G,0.0148
13,G61C C94U C115U A121G,-4.32
14,G61U C88A,-1.18
15,G61U C88G,-1.3
16,G61A C88A,-0.575
17,G61U U78C G117U,-1.99
18,G61U C64U,-3.25
19,G61U G63C,-3.05
20,G61U G63U,-4.98
21,G61A C101A,-0.787
22,G61A C101G,-1.59
23,G61A C88G G120A A121C,-1.75
24,G61A C73A,-0.202

row,Variant,polymerase ribozyme fitness (log ratio)
1,G61U C101A,-1.33
2,G61U C101U,0.0554
3,G61U C85G,-2.33
4,G61A C89U,-0.458
5,G61U C115A,0.264
6,G61U C115U,-0.433
7,G61C C73G U134G G135C,-1.75
8,G61C C80A U109G,-6.27
9,G61C G77U,-1.86
10,G61C G77A,-4.61
11,G60U U130A,-0.92
12,G60U U130G,-0.482
13,G60U C73U U106A,-0.452
14,G61A C70U,-0.854
15,G61A C70A,-3.99
16,G61C C114U G127U,-5.3
17,G60U U81A,-0.347
18,G61U A66C U92A,-4.97
19,G61U A66C U92C,-2.21
20,G61U C80A C101A,-4.47
21,G61A G135U,-0.801
22,G61U U109C,-2.41
23,G61U A74U G127U,-4.02
24,G61U U78G C94A U129A,-2.72

row,Variant,polymerase ribozyme fitness (log ratio)
1,G61A G93A C104U,0.015
2,G61C A75U C97U,-0.192
3,G61A U87A,0.597
4,G61U A83C C104A C115U,-4.01
5,G61C G127A,-2.71
6,G61A C94U,-0.0774
7,G61A C94A,-0.27
8,G61C C94A U131G,-2.91
9,G60U C115A,0.226
10,G61A G128A,-1.69
11,G60U U112G A121G U133A U134A,1.66
12,G61A A91C A95U G110U C115A U125C U130C,-3.6
13,G60U U78C A90C G117U,-4.13
14,G61C G110A,-3.32
15,G61C G110C,-5.94
16,G61A G93C C97A C104A,-6.04
17,G61C C104U,-1.51
18,G61U U81C C101G,-2.09
19,G61C C73U,-2.31
20,G61A C80U A105U,-3.51
21,G61A U116C,-0.278
22,G61A U116G,-3.01
23,G60U C89G C101U U112A C115U,-4.63
